The subject of one assay is F-actin. Description: Immunofluorescence / Phalloidin-TRITC staining of transfected COS cells. The format is cell-based. As to conditions: transfected COS cells, Myc-tagged proteins. The protocol: (§1) Transient Transfections, Reporter Assays and Immunofluorescence Microscopy. COS cells were maintained in DMEM with 10% FBS. Eighteen hours after plating, the medium was changed to serum-free medium and transfections were performed at 50% confluency using FuGENE reagent-6 (Roche Molecular Biochemicals) following manufacturer's instructions. Each transfection used 0.15 μg of plasmid DNA for the reporter assays, and 0.5-1.0 μg immunohistochemistry. Cytochalasin D 2 μM (Sigma-Aldrich), and Y-27632 75 μM (Tocris) were added directly just after transfection. Latrunculin B 0.5 μM (dissolved in 10% ethanol, Calbiochem) was added 12 hr after transfection and 10% ethanol (final concentration 0.01%) was added to control wells. Cells were harvested 36 hr after transfection and their luciferase and β-galactosidase activity were measured.
For measuring immunofluorescence, cells were rinsed with PBS and fixed in 4% paraformaldehyde for 10 min on ice. After rinsing with PBS, COS cells were incubated in 0.1% Triton X-100 in PBS for 5 min on ice. For rat neonatal cardiomyocytes, 1% Triton X-100 in PBS was used. Cells were blocked for 20 min at room temperature in 0.5% BSA in PBS for COS cells and in 1% BSA plus 3% goat serum in PBS for rat cardiomyocytes. Then, cells were incubated with first antibody diluted in 0.5% BSA in PBS for 30-60 min at room temperature or overnight at 4° C. Anti c-myc monoclonal antibody 9E10 (Santa Cruz) was used at a 1:200 dilution. Other antibodies were anti α-actinin monoclonal antibody (1:400; Sigma-Aldrich), α-tubulin antibody (1:2000; Sigma-Aldrich) and anti-vimentin antibody (1:500; Sigma-Aldrich). Secondary antibodies were anti mouse/rabbit IgG FITC or Texas red (Vector) used at a 1:200 dilution incubated with or without Phalloidin-TRITC (1:500; Sigma Aldrich).

In another assay the test system is actin. Put plainly: Co-immunoprecipitation of Myc-tagged proteins with actin in COS cells. The assay is classed as binding. As to conditions: anti-Myc immunoprecipitation, anti-actin Western blot. The protocol: Western Blot and Co-immunoprecipitation Assay. Immunoprecipitation and western blot analysis was performed as described previously (Lu et al., 2000). For immunoprecipitation, cells were incubated with 1 μg anti c-myc polyclonal antibody A14 (Santa Cruz). Western blots were performed with anti-actin monoclonal antibody C4 (1:100; Roche Molecular Biochemicals) or anti c-myc monoclonal antibody 9E10 (1:1000; Santa Cruse) followed by incubation with secondary antibody HRP-conjugated anti mouse-IgG (Santa Cruse, Vector). To detect signals, blots were incubated with ECL (Santa Cruz) for 1 min, and exposed to film (Eastman Kodak Co).

A further assay concerns SM22 promoter. Put plainly: SM22-luciferase reporter assay in transiently transfected COS cells. The format is cell-based. The settings on record: COS cells, STARS and deletion mutants.
Description: STARS Expression Plasmids. STARS expression constructs were generated using the pcDNA3.1 mammalian expression vector (Invitrogen) which was modified to contain an amino-terminal Myc-tag. Constitutively active RhoA (L63) and C3 transferase in Prk5 were generously provided by Dr. Alan Hall (University College, London, United Kingdom). The SM22-luciferase reporter 1343 bp promoter has been previously described (Li et al., 1995). The smooth muscle α actin-luciferase reporter contained the 4 kb promoter region ligated into the pBL3basic vector (Promega). The ANF reporter contained the 638 bp promoter region (a generous gift from Dr. Mona Nemer, Universite de Montreal, Montreal, Quebec, Canada). The 4× cfos reporter contained four tandem copies of the cfos CArG box with flanking sequences, as described (Chang et al., 2001). CMV-lacZ (Promega) was used as an internal control for transfection efficiency.
as §1
(In general: Reporter assays use an easily measured gene product as a stand-in for the process of interest.)

This is an account of results in US7405286B2, “Stars—A muscle-specific actin-binding protein” (The Board of Regents of the University of Texas System, priority 2002, dated 2008).

“Also recorded” adds a separate entry of the source.

B1: N101-233: STARS deletion mutant lacking residues from the carboxy-terminus into the conserved region (protein)
chain: VSHIKKKEVSKTVVSKTYERGGDVSHLSHRYERDAGVLEPGQPENDIDRILHSHGSPTRRRKCANLVSELTKGWRVMEQEEPTWRSDSVDTEDSGYGGEAEERPEQDGVQVAVVRIKRPLPSQVNRFTEKLNC
modifications: left off: small tags and cut ends
notes: STARS deletion mutant lacking residues from the carboxy-terminus into the conserved region
As for B1, in the assay with F-actin, the “association with F-actin / actin stress fibers” value is recorded as “did not affect the association with F-actin” and the “bundling of actin stress fibers” value is reported as “abolished the ability of STARS to bundle actin stress fibers”. The co-immunoprecipitation with actin entry in the assay on actin is “did not bind actin”.

B2: N233: STARS deletion mutant lacking residues from the carboxy-terminus into the conserved region (protein)
chain: MAPGEKESGEGPAKSALRKIRTATLVISLARGWQQWANENSIRQAQEPTGWLPGGTQDSPQAPKPITPPTSHQKAQSAPKSPPRLPEGHGDGQSSEKAPEVSHIKKKEVSKTVVSKTYERGGDVSHLSHRYERDAGVLEPGQPENDIDRILHSHGSPTRRRKCANLVSELTKGWRVMEQEEPTWRSDSVDTEDSGYGGEAEERPEQDGVQVAVVRIKRPLPSQVNRFTEKLNC
modifications: left off: small tags and cut ends
notes: as for B1
As for B2, in the assay with F-actin, the “association with F-actin / actin stress fibers” value is recorded as “did not affect the association with F-actin” and the “bundling of actin stress fibers” value is recorded as “abolished the ability of STARS to bundle actin stress fibers”. In addition, in the assay with actin, the co-immunoprecipitation with actin result is given as “did not bind actin”.

B3: Del234-247: small internal STARS deletion mutant within the conserved region (protein)
chain: MAPGEKESGEGPAKSALRKIRTATLVISLARGWQQWANENSIRQAQEPTGWLPGGTQDSPQAPKPITPPTSHQKAQSAPKSPPRLPEGHGDGQSSEKAPEVSHIKKKEVSKTVVSKTYERGGDVSHLSHRYERDAGVLEPGQPENDIDRILHSHGSPTRRRKCANLVSELTKGWRVMEQEEPTWRSDSVDTEDSGYGGEAEERPEQDGVQVAVVRIKRPLPSQVNRFTEKLNCRWQQWADEHIQSQKLNPFSEEFDYELAMSTRLHKGDEGYGRPKEGTKTAERAKRAEEHIYREMMDMCFIICTMARHRRDGKIQVTFGDLFDRYVRISDKVVGILMRARKHGLVDFEGEMLWQGRDDHV
modifications: left off: small tags and cut ends
notes: small internal STARS deletion mutant within the conserved region
For B3, the “bundling of actin stress fibers” value with F-actin is on record as “induce actin bundles”. For the same molecule, in the assay on SM22 promoter, the “activation of SM22-luciferase / SRF transcription, in words” value is “activate SRF transcription”. In addition, the co-immunoprecipitation with actin result with actin is reported as “weak actin-binding activity”.

B4: Del248-262: small internal STARS deletion mutant within the conserved region (protein)
chain: MAPGEKESGEGPAKSALRKIRTATLVISLARGWQQWANENSIRQAQEPTGWLPGGTQDSPQAPKPITPPTSHQKAQSAPKSPPRLPEGHGDGQSSEKAPEVSHIKKKEVSKTVVSKTYERGGDVSHLSHRYERDAGVLEPGQPENDIDRILHSHGSPTRRRKCANLVSELTKGWRVMEQEEPTWRSDSVDTEDSGYGGEAEERPEQDGVQVAVVRIKRPLPSQVNRFTEKLNCKAQQKYSPVGNLKGNPFSEEFDYELAMSTRLHKGDEGYGRPKEGTKTAERAKRAEEHIYREMMDMCFIICTMARHRRDGKIQVTFGDLFDRYVRISDKVVGILMRARKHGLVDFEGEMLWQGRDDHV
modifications: left off: small tags and cut ends
notes: as for B3
For B4, the “bundling of actin stress fibers” value in the assay on F-actin is given as “induce actin bundles”. Besides, the “activation of SM22-luciferase / SRF transcription, in words” value with SM22 promoter is listed as “activate SRF transcription”. Further, the co-immunoprecipitation with actin entry in the assay with actin is “weak actin-binding activity”.

B5: N100: STARS deletion mutant lacking residues from the carboxy-terminus into the conserved region (protein)
chain: MAPGEKESGEGPAKSALRKIRTATLVISLARGWQQWANENSIRQAQEPTGWLPGGTQDSPQAPKPITPPTSHQKAQSAPKSPPRLPEGHGDGQSSEKAPE
modifications: left off: small tags and cut ends
notes: as for B1
Consider B5, for which, in the assay on F-actin, the “association with F-actin / actin stress fibers” value is listed as “did not affect the association with F-actin” and the “bundling of actin stress fibers” value was “abolished the ability of STARS to bundle actin stress fibers”. Moreover, the co-immunoprecipitation with actin result in the assay on actin is “did not bind actin”.

B6: Del263-279: small internal STARS deletion mutant within the conserved region (protein)
chain: MAPGEKESGEGPAKSALRKIRTATLVISLARGWQQWANENSIRQAQEPTGWLPGGTQDSPQAPKPITPPTSHQKAQSAPKSPPRLPEGHGDGQSSEKAPEVSHIKKKEVSKTVVSKTYERGGDVSHLSHRYERDAGVLEPGQPENDIDRILHSHGSPTRRRKCANLVSELTKGWRVMEQEEPTWRSDSVDTEDSGYGGEAEERPEQDGVQVAVVRIKRPLPSQVNRFTEKLNCKAQQKYSPVGNLKGRWQQWADEHIQSQKLHKGDEGYGRPKEGTKTAERAKRAEEHIYREMMDMCFIICTMARHRRDGKIQVTFGDLFDRYVRISDKVVGILMRARKHGLVDFEGEMLWQGRDDHV
modifications: left off: small tags and cut ends
notes: as for B3
As to B6, the “bundling of actin stress fibers” value in the assay with F-actin is listed as “induce actin bundles”. In addition, the “activation of SM22-luciferase / SRF transcription, in words” value in the assay on SM22 promoter is “activate SRF transcription”. The co-immunoprecipitation with actin result in the assay on actin is on record as “weak actin-binding activity”.

B7: C142: STARS deletion mutant that encoded only the conserved carboxy-terminal region (142 amino acids) (protein)
chain: KAQQKYSPVGNLKGRWQQWADEHIQSQKLNPFSEEFDYELAMSTRLHKGDEGYGRPKEGTKTAERAKRAEEHIYREMMDMCFIICTMARHRRDGKIQVTFGDLFDRYVRISDKVVGILMRARKHGLVDFEGEMLWQGRDDHV
modifications: left off: small tags and cut ends
For the molecule B7, in the assay on F-actin, the “association with F-actin / actin stress fibers” value was “associated with F-actin” and the “bundling of actin stress fibers” value is listed as “increased stress fibers; also recorded: induce actin bundles”. Moreover, the “activation of SM22-luciferase / SRF transcription, in words” value with SM22 promoter is listed as “as effective as the full-length protein; also recorded: activate SRF transcription”. For the same molecule, the co-immunoprecipitation with actin result with actin is “co-immunoprecipitated with actin”.
